Test results from US20260176319A1 (KALLYOPE, published 2026).
Starred links: 1 amine or outer side, 2 acyl side, 3 side chain; linkers in the order of their positions; H or OH if unused. Non-standard residues stand in square brackets, D forms with d. *: point of attachment. Trp(6-Me) = Cc1ccc2c(C[C@H](N)C(=O)O)c[nH]c2c1; Trp(7-Me) = Cc1cccc2c(C[C@H](N)C(=O)O)c[nH]c12; d(γGlu) = O=C(O)[C@@H](CCC(=O)[*:2])N[*:1]; C18 diacid = O=C(O)CCCCCCCCCCCCCCCCC(=O)*; Palmitoyl = CCCCCCCCCCCCCCCC(=O)*; 3Pal = N[C@@H](Cc1cccnc1)C(=O)O; Nle = CCCC[C@H](N)C(=O)O; AEEA = NCCOCCOCC(=O)O; Aib = CC(C)(N)C(=O)O; Ava = NCCCCC(=O)O; Sar = CNCC(=O)O

Target: human GRP receptor (human, UniProt P30550 1-384)
Assay: cell-based or functional assay

human GRP receptor, sequence (P30550 whole entry): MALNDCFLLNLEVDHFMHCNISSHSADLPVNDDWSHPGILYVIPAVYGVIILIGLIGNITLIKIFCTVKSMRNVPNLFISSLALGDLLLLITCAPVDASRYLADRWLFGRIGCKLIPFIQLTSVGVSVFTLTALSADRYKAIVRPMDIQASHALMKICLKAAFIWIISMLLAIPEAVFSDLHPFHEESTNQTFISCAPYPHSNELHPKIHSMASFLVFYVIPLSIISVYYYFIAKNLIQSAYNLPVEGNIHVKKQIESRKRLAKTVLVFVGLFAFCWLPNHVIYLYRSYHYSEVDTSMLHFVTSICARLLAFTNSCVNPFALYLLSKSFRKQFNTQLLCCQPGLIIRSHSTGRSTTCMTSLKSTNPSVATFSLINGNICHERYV

Row | Binder | hIP1 GRPR EC50
1 | {C18 diacid}-[d(γGlu)][AEEA][AEEA]GNHWAV[dA]HL[Nle][Aib]-NH2 (SMILES CCCC[C@H](NC(=O)[C@H](CC(C)C)NC(=O)[C@H](Cc1c[nH]cn1)NC(=O)[C@@H](C)NC(=O)[C@@H](NC(=O)[C@H](C)NC(=O)[C@H](Cc1c[nH]c2ccccc12)NC(=O)[C@H](Cc1c[nH]cn1)NC(=O)[C@H](CC(N)=O)NC(=O)CNC(=O)COCCOCCNC(=O)COCCOCCNC(=O)CC[C@@H](NC(=O)CCCCCCCCCCCCCCCCC(=O)O)C(=O)O)C(C)C)C(=O)NC(C)(C)C(N)=O) [Peptide 82] | 1230 nM
2 | Palmitoyl-[d(γGlu)][AEEA][AEEA]GNHWAV[dA]HL[Nle][Aib]-NH2 (SMILES CCCCCCCCCCCCCCCC(=O)N[C@H](CCC(=O)NCCOCCOCC(=O)NCCOCCOCC(=O)NCC(=O)N[C@@H](CC(N)=O)C(=O)N[C@@H](Cc1c[nH]cn1)C(=O)N[C@@H](Cc1c[nH]c2ccccc12)C(=O)N[C@@H](C)C(=O)N[C@H](C(=O)N[C@H](C)C(=O)N[C@@H](Cc1c[nH]cn1)C(=O)N[C@@H](CC(C)C)C(=O)N[C@@H](CCCC)C(=O)NC(C)(C)C(N)=O)C(C)C)C(=O)O) [Peptide 75] | 18.2 nM
3 | {C18 diacid}-[d(γGlu)][Ava]GNHWAV[dA]HL[Nle]-NH2 (SMILES CCCC[C@H](NC(=O)[C@H](CC(C)C)NC(=O)[C@H](Cc1c[nH]cn1)NC(=O)[C@@H](C)NC(=O)[C@@H](NC(=O)[C@H](C)NC(=O)[C@H](Cc1c[nH]c2ccccc12)NC(=O)[C@H](Cc1c[nH]cn1)NC(=O)[C@H](CC(N)=O)NC(=O)CNC(=O)CCCCNC(=O)CC[C@@H](NC(=O)CCCCCCCCCCCCCCCCC(=O)O)C(=O)O)C(C)C)C(N)=O) [Peptide 80] | 5.11 nM
4 | EXXGNHWAVGHLM (Octadecanedioyl-D-γGlu-OEG-OEG-Gly-Asn-His-Trp-Ala-Val-Gly-His-Leu-Met-NH2) [Peptide 5] | 7.5 nM
5 | {C18 diacid}-[d(γGlu)][AEEA][AEEA]GNH[Trp(6-Me)]AV[dA]HL[Nle][Sar]-NH2 (SMILES CCCC[C@H](NC(=O)[C@H](CC(C)C)NC(=O)[C@H](Cc1c[nH]cn1)NC(=O)[C@@H](C)NC(=O)[C@@H](NC(=O)[C@H](C)NC(=O)[C@H](Cc1c[nH]c2cc(C)ccc12)NC(=O)[C@H](Cc1c[nH]cn1)NC(=O)[C@H](CC(N)=O)NC(=O)CNC(=O)COCCOCCNC(=O)COCCOCCNC(=O)CC[C@@H](NC(=O)CCCCCCCCCCCCCCCCC(=O)O)C(=O)O)C(C)C)C(=O)N(C)CC(N)=O) [Peptide 84] | 2550 nM
6 | {C18 diacid}-[d(γGlu)][AEEA][AEEA]GK(Ac)HWAV[dA]HL[Nle][Sar]-NH2 (SMILES CCCC[C@H](NC(=O)[C@H](CC(C)C)NC(=O)[C@H](Cc1c[nH]cn1)NC(=O)[C@@H](C)NC(=O)[C@@H](NC(=O)[C@H](C)NC(=O)[C@H](Cc1c[nH]c2ccccc12)NC(=O)[C@H](Cc1c[nH]cn1)NC(=O)[C@H](CCCCNC(C)=O)NC(=O)CNC(=O)COCCOCCNC(=O)COCCOCCNC(=O)CC[C@@H](NC(=O)CCCCCCCCCCCCCCCCC(=O)O)C(=O)O)C(C)C)C(=O)N(C)CC(N)=O) [Peptide 77] | 184 nM
7 | {C18 diacid}-[d(γGlu)][AEEA][AEEA]GNH[Trp(7-Me)]AV[dA]HL[Nle][Aib]-NH2 (SMILES CCCC[C@H](NC(=O)[C@H](CC(C)C)NC(=O)[C@H](Cc1c[nH]cn1)NC(=O)[C@@H](C)NC(=O)[C@@H](NC(=O)[C@H](C)NC(=O)[C@H](Cc1c[nH]c2c(C)cccc12)NC(=O)[C@H](Cc1c[nH]cn1)NC(=O)[C@H](CC(N)=O)NC(=O)CNC(=O)COCCOCCNC(=O)COCCOCCNC(=O)CC[C@@H](NC(=O)CCCCCCCCCCCCCCCCC(=O)O)C(=O)O)C(C)C)C(=O)NC(C)(C)C(N)=O) [Peptide 76] | 358 nM
8 | {C18 diacid}-[d(γGlu)][AEEA][AEEA]GNH[Trp(6-Me)]AV[dA]HL[Nle]-NH2 (SMILES CCCC[C@H](NC(=O)[C@H](CC(C)C)NC(=O)[C@H](Cc1c[nH]cn1)NC(=O)[C@@H](C)NC(=O)[C@@H](NC(=O)[C@H](C)NC(=O)[C@H](Cc1c[nH]c2cc(C)ccc12)NC(=O)[C@H](Cc1c[nH]cn1)NC(=O)[C@H](CC(N)=O)NC(=O)CNC(=O)COCCOCCNC(=O)COCCOCCNC(=O)CC[C@@H](NC(=O)CCCCCCCCCCCCCCCCC(=O)O)C(=O)O)C(C)C)C(N)=O) [Peptide 79] | 529 nM
9 | {C18 diacid}-[d(γGlu)][AEEA][AEEA][AEEA][AEEA]GN[3Pal]WAV[dA]HL[Nle]-NH2 (SMILES CCCC[C@H](NC(=O)[C@H](CC(C)C)NC(=O)[C@H](Cc1c[nH]cn1)NC(=O)[C@@H](C)NC(=O)[C@@H](NC(=O)[C@H](C)NC(=O)[C@H](Cc1c[nH]c2ccccc12)NC(=O)[C@H](Cc1cccnc1)NC(=O)[C@H](CC(N)=O)NC(=O)CNC(=O)COCCOCCNC(=O)COCCOCCNC(=O)COCCOCCNC(=O)COCCOCCNC(=O)CC[C@@H](NC(=O)CCCCCCCCCCCCCCCCC(=O)O)C(=O)O)C(C)C)C(N)=O) [Peptide 83] | 109 nM
10 | {C18 diacid}-[d(γGlu)][AEEA][AEEA][Aib]NHWAV[dA]HL[Nle]-NH2 (SMILES CCCC[C@H](NC(=O)[C@H](CC(C)C)NC(=O)[C@H](Cc1c[nH]cn1)NC(=O)[C@@H](C)NC(=O)[C@@H](NC(=O)[C@H](C)NC(=O)[C@H](Cc1c[nH]c2ccccc12)NC(=O)[C@H](Cc1c[nH]cn1)NC(=O)[C@H](CC(N)=O)NC(=O)C(C)(C)NC(=O)COCCOCCNC(=O)COCCOCCNC(=O)CC[C@@H](NC(=O)CCCCCCCCCCCCCCCCC(=O)O)C(=O)O)C(C)C)C(N)=O) [Peptide 74] | 25.5 nM
11 | {C18 diacid}-[d(γGlu)][AEEA][AEEA][AEEA][AEEA]GNH[Trp(7-Me)]AV[dA]HL-NH2 (SMILES Cc1cccc2c(C[C@H](NC(=O)[C@H](Cc3c[nH]cn3)NC(=O)[C@H](CC(N)=O)NC(=O)CNC(=O)COCCOCCNC(=O)COCCOCCNC(=O)COCCOCCNC(=O)COCCOCCNC(=O)CC[C@@H](NC(=O)CCCCCCCCCCCCCCCCC(=O)O)C(=O)O)C(=O)N[C@@H](C)C(=O)N[C@H](C(=O)N[C@H](C)C(=O)N[C@@H](Cc3c[nH]cn3)C(=O)N[C@@H](CC(C)C)C(N)=O)C(C)C)c[nH]c12) [Peptide 78] | 14 nM
12 | {C18 diacid}-[d(γGlu)][AEEA][AEEA]GNH[Trp(7-Me)]AV[dA]HL[Nle][Sar]-NH2 (SMILES CCCC[C@H](NC(=O)[C@H](CC(C)C)NC(=O)[C@H](Cc1c[nH]cn1)NC(=O)[C@@H](C)NC(=O)[C@@H](NC(=O)[C@H](C)NC(=O)[C@H](Cc1c[nH]c2c(C)cccc12)NC(=O)[C@H](Cc1c[nH]cn1)NC(=O)[C@H](CC(N)=O)NC(=O)CNC(=O)COCCOCCNC(=O)COCCOCCNC(=O)CC[C@@H](NC(=O)CCCCCCCCCCCCCCCCC(=O)O)C(=O)O)C(C)C)C(=O)N(C)CC(N)=O) [Peptide 81] | 505 nM
